# Results: US20230365662A1
# Values joined by “and” are separate entries in the source; they are usually repeats but may differ in a detail not shown here. Identical values can stand only once.
# B1: KB001 mouse Fab VL S28D (Fab, V domains shown)
# VH: EVQLKQSGPGLVAPSQSLSITCTVSGFSLSIYSVHWVRQPPGKGLEWLGMIWGGGSSDYNSALKSRLSISKDNSKSQVFLKMNSLQTDDTAMYYCARNGNFYAMDYWGQGTSVTVSS
# VL: QIVLTQSPAIMSASLGERVTMTCTASSDVSSSFLHWYQQKPGSSPQLWIYSTSNLASGVPARFSGSGSGTSYSLTISSMEAEDAATYYCHQYHHSPYIYTFGGGTKLEIK
# B2: KB001 mouse Fab VL S32Q (Fab, V domains shown)
# VH: EVQLKQSGPGLVAPSQSLSITCTVSGFSLSIYSVHWVRQPPGKGLEWLGMIWGGGSSDYNSALKSRLSISKDNSKSQVFLKMNSLQTDDTAMYYCARNGNFYAMDYWGQGTSVTVSS
# VL: QIVLTQSPAIMSASLGERVTMTCTASSSVSSQFLHWYQQKPGSSPQLWIYSTSNLASGVPARFSGSGSGTSYSLTISSMEAEDAATYYCHQYHHSPYIYTFGGGTKLEIK
# B3: KB001 mouse Fab VL S30M (Fab, V domains shown)
# VH: EVQLKQSGPGLVAPSQSLSITCTVSGFSLSIYSVHWVRQPPGKGLEWLGMIWGGGSSDYNSALKSRLSISKDNSKSQVFLKMNSLQTDDTAMYYCARNGNFYAMDYWGQGTSVTVSS
# VL: QIVLTQSPAIMSASLGERVTMTCTASSSVMSSFLHWYQQKPGSSPQLWIYSTSNLASGVPARFSGSGSGTSYSLTISSMEAEDAATYYCHQYHHSPYIYTFGGGTKLEIK
# B4: KB001 mouse Fab VL S32P (Fab, V domains shown)
# VH: EVQLKQSGPGLVAPSQSLSITCTVSGFSLSIYSVHWVRQPPGKGLEWLGMIWGGGSSDYNSALKSRLSISKDNSKSQVFLKMNSLQTDDTAMYYCARNGNFYAMDYWGQGTSVTVSS
# VL: QIVLTQSPAIMSASLGERVTMTCTASSSVSSPFLHWYQQKPGSSPQLWIYSTSNLASGVPARFSGSGSGTSYSLTISSMEAEDAATYYCHQYHHSPYIYTFGGGTKLEIK
# B5: KB001 mouse Fab VL S30H (Fab, V domains shown)
# VH: EVQLKQSGPGLVAPSQSLSITCTVSGFSLSIYSVHWVRQPPGKGLEWLGMIWGGGSSDYNSALKSRLSISKDNSKSQVFLKMNSLQTDDTAMYYCARNGNFYAMDYWGQGTSVTVSS
# VL: QIVLTQSPAIMSASLGERVTMTCTASSSVHSSFLHWYQQKPGSSPQLWIYSTSNLASGVPARFSGSGSGTSYSLTISSMEAEDAATYYCHQYHHSPYIYTFGGGTKLEIK
# B6: KB001 mouse Fab VL S32G (Fab, V domains shown)
# VH: EVQLKQSGPGLVAPSQSLSITCTVSGFSLSIYSVHWVRQPPGKGLEWLGMIWGGGSSDYNSALKSRLSISKDNSKSQVFLKMNSLQTDDTAMYYCARNGNFYAMDYWGQGTSVTVSS
# VL: QIVLTQSPAIMSASLGERVTMTCTASSSVSSGFLHWYQQKPGSSPQLWIYSTSNLASGVPARFSGSGSGTSYSLTISSMEAEDAATYYCHQYHHSPYIYTFGGGTKLEIK
# B7: KB001 mouse Fab VL S30K (Fab, V domains shown)
# VH: EVQLKQSGPGLVAPSQSLSITCTVSGFSLSIYSVHWVRQPPGKGLEWLGMIWGGGSSDYNSALKSRLSISKDNSKSQVFLKMNSLQTDDTAMYYCARNGNFYAMDYWGQGTSVTVSS
# VL: QIVLTQSPAIMSASLGERVTMTCTASSSVKSSFLHWYQQKPGSSPQLWIYSTSNLASGVPARFSGSGSGTSYSLTISSMEAEDAATYYCHQYHHSPYIYTFGGGTKLEIK
# B8: KB001 mouse Fab VL S30L (Fab, V domains shown)
# VH: EVQLKQSGPGLVAPSQSLSITCTVSGFSLSIYSVHWVRQPPGKGLEWLGMIWGGGSSDYNSALKSRLSISKDNSKSQVFLKMNSLQTDDTAMYYCARNGNFYAMDYWGQGTSVTVSS
# VL: QIVLTQSPAIMSASLGERVTMTCTASSSVLSSFLHWYQQKPGSSPQLWIYSTSNLASGVPARFSGSGSGTSYSLTISSMEAEDAATYYCHQYHHSPYIYTFGGGTKLEIK
# B9: KB001 mouse Fab VL S30E (Fab, V domains shown)
# VH: EVQLKQSGPGLVAPSQSLSITCTVSGFSLSIYSVHWVRQPPGKGLEWLGMIWGGGSSDYNSALKSRLSISKDNSKSQVFLKMNSLQTDDTAMYYCARNGNFYAMDYWGQGTSVTVSS
# VL: QIVLTQSPAIMSASLGERVTMTCTASSSVESSFLHWYQQKPGSSPQLWIYSTSNLASGVPARFSGSGSGTSYSLTISSMEAEDAATYYCHQYHHSPYIYTFGGGTKLEIK
# B10: KB001 mouse Fab VL S30T (Fab, V domains shown)
# VH: EVQLKQSGPGLVAPSQSLSITCTVSGFSLSIYSVHWVRQPPGKGLEWLGMIWGGGSSDYNSALKSRLSISKDNSKSQVFLKMNSLQTDDTAMYYCARNGNFYAMDYWGQGTSVTVSS
# VL: QIVLTQSPAIMSASLGERVTMTCTASSSVTSSFLHWYQQKPGSSPQLWIYSTSNLASGVPARFSGSGSGTSYSLTISSMEAEDAATYYCHQYHHSPYIYTFGGGTKLEIK
# B11: KB001 mouse Fab VL S30D (Fab, V domains shown)
# VH: EVQLKQSGPGLVAPSQSLSITCTVSGFSLSIYSVHWVRQPPGKGLEWLGMIWGGGSSDYNSALKSRLSISKDNSKSQVFLKMNSLQTDDTAMYYCARNGNFYAMDYWGQGTSVTVSS
# VL: QIVLTQSPAIMSASLGERVTMTCTASSSVDSSFLHWYQQKPGSSPQLWIYSTSNLASGVPARFSGSGSGTSYSLTISSMEAEDAATYYCHQYHHSPYIYTFGGGTKLEIK
# B12: KB001 mouse Fab VL S32A (Fab, V domains shown)
# VH: EVQLKQSGPGLVAPSQSLSITCTVSGFSLSIYSVHWVRQPPGKGLEWLGMIWGGGSSDYNSALKSRLSISKDNSKSQVFLKMNSLQTDDTAMYYCARNGNFYAMDYWGQGTSVTVSS
# VL: QIVLTQSPAIMSASLGERVTMTCTASSSVSSAFLHWYQQKPGSSPQLWIYSTSNLASGVPARFSGSGSGTSYSLTISSMEAEDAATYYCHQYHHSPYIYTFGGGTKLEIK
# B13: KB001 mouse Fab VL V29I (Fab, V domains shown)
# VH: EVQLKQSGPGLVAPSQSLSITCTVSGFSLSIYSVHWVRQPPGKGLEWLGMIWGGGSSDYNSALKSRLSISKDNSKSQVFLKMNSLQTDDTAMYYCARNGNFYAMDYWGQGTSVTVSS
# VL: QIVLTQSPAIMSASLGERVTMTCTASSSISSSFLHWYQQKPGSSPQLWIYSTSNLASGVPARFSGSGSGTSYSLTISSMEAEDAATYYCHQYHHSPYIYTFGGGTKLEIK
# B14: KB001 mouse Fab VL S31D (Fab, V domains shown)
# VH: EVQLKQSGPGLVAPSQSLSITCTVSGFSLSIYSVHWVRQPPGKGLEWLGMIWGGGSSDYNSALKSRLSISKDNSKSQVFLKMNSLQTDDTAMYYCARNGNFYAMDYWGQGTSVTVSS
# VL: QIVLTQSPAIMSASLGERVTMTCTASSSVSDSFLHWYQQKPGSSPQLWIYSTSNLASGVPARFSGSGSGTSYSLTISSMEAEDAATYYCHQYHHSPYIYTFGGGTKLEIK
# B15: KB001 mouse Fab VL S30I (Fab, V domains shown)
# VH: EVQLKQSGPGLVAPSQSLSITCTVSGFSLSIYSVHWVRQPPGKGLEWLGMIWGGGSSDYNSALKSRLSISKDNSKSQVFLKMNSLQTDDTAMYYCARNGNFYAMDYWGQGTSVTVSS
# VL: QIVLTQSPAIMSASLGERVTMTCTASSSVISSFLHWYQQKPGSSPQLWIYSTSNLASGVPARFSGSGSGTSYSLTISSMEAEDAATYYCHQYHHSPYIYTFGGGTKLEIK
# B16: KB001 mouse Fab VL S31Q (Fab, V domains shown)
# VH: EVQLKQSGPGLVAPSQSLSITCTVSGFSLSIYSVHWVRQPPGKGLEWLGMIWGGGSSDYNSALKSRLSISKDNSKSQVFLKMNSLQTDDTAMYYCARNGNFYAMDYWGQGTSVTVSS
# VL: QIVLTQSPAIMSASLGERVTMTCTASSSVSQSFLHWYQQKPGSSPQLWIYSTSNLASGVPARFSGSGSGTSYSLTISSMEAEDAATYYCHQYHHSPYIYTFGGGTKLEIK
# B17: KB001 mouse Fab VL S30R (Fab, V domains shown)
# VH: EVQLKQSGPGLVAPSQSLSITCTVSGFSLSIYSVHWVRQPPGKGLEWLGMIWGGGSSDYNSALKSRLSISKDNSKSQVFLKMNSLQTDDTAMYYCARNGNFYAMDYWGQGTSVTVSS
# VL: QIVLTQSPAIMSASLGERVTMTCTASSSVRSSFLHWYQQKPGSSPQLWIYSTSNLASGVPARFSGSGSGTSYSLTISSMEAEDAATYYCHQYHHSPYIYTFGGGTKLEIK
# B18: KB001 mouse Fab VL S31W (Fab, V domains shown)
# VH: EVQLKQSGPGLVAPSQSLSITCTVSGFSLSIYSVHWVRQPPGKGLEWLGMIWGGGSSDYNSALKSRLSISKDNSKSQVFLKMNSLQTDDTAMYYCARNGNFYAMDYWGQGTSVTVSS
# VL: QIVLTQSPAIMSASLGERVTMTCTASSSVSWSFLHWYQQKPGSSPQLWIYSTSNLASGVPARFSGSGSGTSYSLTISSMEAEDAATYYCHQYHHSPYIYTFGGGTKLEIK
# B19: KB001 mouse Fab VL V29L (Fab, V domains shown)
# VH: EVQLKQSGPGLVAPSQSLSITCTVSGFSLSIYSVHWVRQPPGKGLEWLGMIWGGGSSDYNSALKSRLSISKDNSKSQVFLKMNSLQTDDTAMYYCARNGNFYAMDYWGQGTSVTVSS
# VL: QIVLTQSPAIMSASLGERVTMTCTASSSLSSSFLHWYQQKPGSSPQLWIYSTSNLASGVPARFSGSGSGTSYSLTISSMEAEDAATYYCHQYHHSPYIYTFGGGTKLEIK
# B20: KB001 mouse Fab VL S32Y (Fab, V domains shown)
# VH: EVQLKQSGPGLVAPSQSLSITCTVSGFSLSIYSVHWVRQPPGKGLEWLGMIWGGGSSDYNSALKSRLSISKDNSKSQVFLKMNSLQTDDTAMYYCARNGNFYAMDYWGQGTSVTVSS
# VL: QIVLTQSPAIMSASLGERVTMTCTASSSVSSYFLHWYQQKPGSSPQLWIYSTSNLASGVPARFSGSGSGTSYSLTISSMEAEDAATYYCHQYHHSPYIYTFGGGTKLEIK
# B21: KB001 mouse Fab VL S30W (Fab, V domains shown)
# VH: EVQLKQSGPGLVAPSQSLSITCTVSGFSLSIYSVHWVRQPPGKGLEWLGMIWGGGSSDYNSALKSRLSISKDNSKSQVFLKMNSLQTDDTAMYYCARNGNFYAMDYWGQGTSVTVSS
# VL: QIVLTQSPAIMSASLGERVTMTCTASSSVWSSFLHWYQQKPGSSPQLWIYSTSNLASGVPARFSGSGSGTSYSLTISSMEAEDAATYYCHQYHHSPYIYTFGGGTKLEIK
# Target: HRgpA-6H (Porphyromonas gingivalis) (UniProt P28784)
# Assay: ELISA, FASEBA Fab on coated HRgpA-6H
# UniProt P28784, sequence (P28784 228-991): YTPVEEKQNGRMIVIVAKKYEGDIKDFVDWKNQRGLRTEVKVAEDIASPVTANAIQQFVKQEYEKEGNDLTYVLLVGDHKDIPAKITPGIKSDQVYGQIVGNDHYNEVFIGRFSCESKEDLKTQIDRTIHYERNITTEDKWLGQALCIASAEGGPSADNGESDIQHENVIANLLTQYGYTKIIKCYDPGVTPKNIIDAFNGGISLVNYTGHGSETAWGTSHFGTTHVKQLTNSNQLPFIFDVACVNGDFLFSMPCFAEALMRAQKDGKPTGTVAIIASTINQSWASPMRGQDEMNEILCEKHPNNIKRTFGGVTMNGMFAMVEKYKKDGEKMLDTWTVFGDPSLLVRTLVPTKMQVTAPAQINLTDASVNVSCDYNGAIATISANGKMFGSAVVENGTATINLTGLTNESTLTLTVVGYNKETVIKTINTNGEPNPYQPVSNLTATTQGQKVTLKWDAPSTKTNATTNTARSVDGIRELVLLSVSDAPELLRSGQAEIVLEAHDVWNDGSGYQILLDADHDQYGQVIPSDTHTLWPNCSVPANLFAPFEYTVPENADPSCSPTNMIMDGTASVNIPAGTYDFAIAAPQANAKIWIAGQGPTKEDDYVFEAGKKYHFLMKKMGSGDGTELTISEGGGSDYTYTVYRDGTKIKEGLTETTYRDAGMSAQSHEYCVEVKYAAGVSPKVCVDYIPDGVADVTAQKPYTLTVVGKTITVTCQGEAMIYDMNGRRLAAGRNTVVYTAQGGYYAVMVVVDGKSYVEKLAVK
Binder,OD450nm,Ratio OD(Variant)/OD(WT)
B1,0.745 and 0.722,0.993 and 0.962
B2,0.716,0.847
B3,0.818,0.949
B4,0.744,0.88
B5,0.808 and 0.747,0.937 and 0.867
B6,0.759,0.898
B7,0.77,0.893
B8,0.813,0.943
B9,0.813,0.943
B10,0.838 and 0.817,0.972 and 0.948
B11,0.702 and 0.723,0.814 and 0.839
B12,0.748 and 0.805,0.885 and 0.953
B13,0.853,0.99
B14,0.762,0.902
B15,0.86,0.998
B16,0.83 and 0.745 and 0.782,0.982 and 0.882 and 0.925
B17,0.778 and 0.793 and 0.802,0.903 and 0.92 and 0.93
B18,0.808,0.956
B19,0.751,0.871
B20,0.753,0.891
B21,0.823,0.955
